These results are taken from patent publication US20230135471A1, “UBIQUITIN VARIANTS WITH IMPROVED AFFINITY FOR 53BP1” (Integrated DNA Technologies, Inc., priority 2021, published 2023).

This assay has as its target 53BP1 fragment (a.a. 1221-1718) fused to an adenylate cyclase fragment (two-hybrid) (UniProt Q12888). Description: cell-based or functional assay.
In the case of “i53 + N60E two-hybrid fusion (designed binder)”, the Experiment 1 Average Enrichment stood at 0.66 log2, the Experiment 1 Rep 1 Enrichment came out at 0.9 log2, the Experiment 1 Rep 2 Enrichment was 0.43 log2 and the Experiment 2 Average Enrichment amounted to 0.25 log2. The substance also had an Experiment 2 Rep 1 Enrichment of 0.13 log2 and an Experiment 2 Rep 2 Enrichment of 0.38 log2.

For “i53 + N60Q two-hybrid fusion (designed binder)”, the Experiment 1 Average Enrichment is 0.08 log2, the Experiment 1 Rep 1 Enrichment was 0.13 log2, the Experiment 1 Rep 2 Enrichment was found to be 0.03 log2 and the Experiment 2 Average Enrichment was 0.29 log2. The Experiment 2 Rep 1 Enrichment worked out at 0.01 log2 and the Experiment 2 Rep 2 Enrichment was 0.58 log2.

The substance “i53 + P19K two-hybrid fusion (designed binder)” came in with an Experiment 1 Average Enrichment of 1 log2, an Experiment 1 Rep 1 Enrichment of 2.12 log2, an Experiment 1 Rep 2 Enrichment of -0.12 log2 and an Experiment 2 Average Enrichment of -0.68 log2. In addition, the Experiment 2 Rep 1 Enrichment was -0.26 log2 and the Experiment 2 Rep 2 Enrichment was -1.1 log2.

For the substance “i53 + P38A two-hybrid fusion (designed binder)”, the Experiment 1 Average Enrichment is 0.06 log2, the Experiment 1 Rep 1 Enrichment is -0.41 log2, the Experiment 1 Rep 2 Enrichment is 0.53 log2 and the Experiment 2 Average Enrichment came to 0 log2. For the same substance, the Experiment 2 Rep 1 Enrichment is -0.16 log2 and the Experiment 2 Rep 2 Enrichment turned out to be 0.15 log2.

Consider “i53 + P38C two-hybrid fusion (designed binder)”, for which the Experiment 1 Average Enrichment worked out at 1.52 log2, the Experiment 1 Rep 1 Enrichment was determined as 1.21 log2, the Experiment 1 Rep 2 Enrichment was determined as 1.83 log2 and the Experiment 2 Average Enrichment was 0.52 log2. The Experiment 2 Rep 1 Enrichment was determined as 0.46 log2 and the Experiment 2 Rep 2 Enrichment amounted to 0.57 log2.

Substance “i53 + P38F two-hybrid fusion (designed binder)” gave an Experiment 1 Average Enrichment of 0.67 log2, an Experiment 1 Rep 1 Enrichment of 0.91 log2, an Experiment 1 Rep 2 Enrichment of 0.43 log2 and an Experiment 2 Average Enrichment of 0.81 log2. Moreover, the Experiment 2 Rep 1 Enrichment was 0.48 log2 and the Experiment 2 Rep 2 Enrichment worked out at 1.13 log2.

In turn, “i53 + P38H two-hybrid fusion (designed binder)” registered an Experiment 1 Average Enrichment of 0.26 log2, an Experiment 1 Rep 1 Enrichment of 0.87 log2, an Experiment 1 Rep 2 Enrichment of -0.35 log2 and an Experiment 2 Average Enrichment of 0.58 log2. The same substance showed an Experiment 2 Rep 1 Enrichment of 0.33 log2 and an Experiment 2 Rep 2 Enrichment of 0.83 log2.

As for “i53 + P38I two-hybrid fusion (designed binder)”, the Experiment 1 Average Enrichment is 0.66 log2, the Experiment 1 Rep 1 Enrichment is 0.4 log2, the Experiment 1 Rep 2 Enrichment came out at 0.92 log2 and the Experiment 2 Average Enrichment turned out to be 0.64 log2. The substance also returned an Experiment 2 Rep 1 Enrichment of 1.62 log2 and an Experiment 2 Rep 2 Enrichment of -0.34 log2.

“i53 + P38K two-hybrid fusion (designed binder)” yielded an Experiment 1 Average Enrichment of -1.02 log2, an Experiment 1 Rep 1 Enrichment of -2.14 log2, an Experiment 1 Rep 2 Enrichment of 0.1 log2 and an Experiment 2 Average Enrichment of 0.25 log2. The same substance registered an Experiment 2 Rep 1 Enrichment of -0.61 log2 and an Experiment 2 Rep 2 Enrichment of 1.11 log2.

Turning to “i53 + P38M two-hybrid fusion (designed binder)”, the Experiment 1 Average Enrichment was -0.31 log2, the Experiment 1 Rep 1 Enrichment is -2.07 log2, the Experiment 1 Rep 2 Enrichment turned out to be 1.45 log2 and the Experiment 2 Average Enrichment was found to be 1.25 log2. This substance also returned an Experiment 2 Rep 1 Enrichment of 1.37 log2 and an Experiment 2 Rep 2 Enrichment of 1.13 log2.

For the substance “i53 + P38N two-hybrid fusion (designed binder)”, the Experiment 1 Average Enrichment was determined as 1.02 log2, the Experiment 1 Rep 1 Enrichment stood at 2.28 log2, the Experiment 1 Rep 2 Enrichment was -0.25 log2 and the Experiment 2 Average Enrichment was -1.49 log2. In addition, the Experiment 2 Rep 1 Enrichment was -1.91 log2 and the Experiment 2 Rep 2 Enrichment was -1.07 log2.

As to “i53 + P38Q two-hybrid fusion (designed binder)”, the Experiment 1 Average Enrichment is -0.25 log2, the Experiment 1 Rep 1 Enrichment is 0.85 log2, the Experiment 1 Rep 2 Enrichment is -1.35 log2 and the Experiment 2 Average Enrichment was 0.5 log2. The Experiment 2 Rep 1 Enrichment stood at 1.18 log2 and the Experiment 2 Rep 2 Enrichment was -0.17 log2.

The substance “i53 + P38S two-hybrid fusion (designed binder)” gave an Experiment 1 Average Enrichment of 0.22 log2, an Experiment 1 Rep 1 Enrichment of 0.19 log2, an Experiment 1 Rep 2 Enrichment of 0.25 log2 and an Experiment 2 Average Enrichment of 0.27 log2. The Experiment 2 Rep 1 Enrichment was 0.56 log2 and the Experiment 2 Rep 2 Enrichment was -0.02 log2.

Turning to “i53 + P38T two-hybrid fusion (designed binder)”, the Experiment 1 Average Enrichment is 0.11 log2, the Experiment 1 Rep 1 Enrichment amounted to 0.95 log2, the Experiment 1 Rep 2 Enrichment is -0.72 log2 and the Experiment 2 Average Enrichment worked out at 0.92 log2. Besides, the Experiment 2 Rep 1 Enrichment is 1.27 log2 and the Experiment 2 Rep 2 Enrichment was found to be 0.58 log2.

In turn, “i53 + P38V two-hybrid fusion (designed binder)” returned an Experiment 1 Average Enrichment of 1.21 log2, an Experiment 1 Rep 1 Enrichment of 1.16 log2, an Experiment 1 Rep 2 Enrichment of 1.26 log2 and an Experiment 2 Average Enrichment of 0.05 log2. The same substance came in with an Experiment 2 Rep 1 Enrichment of 0.38 log2 and an Experiment 2 Rep 2 Enrichment of -0.29 log2.

“i53 + P38W two-hybrid fusion (designed binder)” registered an Experiment 1 Average Enrichment of 0.6 log2, an Experiment 1 Rep 1 Enrichment of 0.61 log2, an Experiment 1 Rep 2 Enrichment of 0.6 log2 and an Experiment 2 Average Enrichment of -0.59 log2. This substance had an Experiment 2 Rep 1 Enrichment of -0.87 log2 and an Experiment 2 Rep 2 Enrichment of -0.32 log2.

For the substance “i53 + P38Y two-hybrid fusion (designed binder)”, the Experiment 1 Average Enrichment was 0.74 log2, the Experiment 1 Rep 1 Enrichment amounted to 1.79 log2, the Experiment 1 Rep 2 Enrichment was -0.3 log2 and the Experiment 2 Average Enrichment is 0.31 log2. Also, the Experiment 2 Rep 1 Enrichment amounted to 0.66 log2 and the Experiment 2 Rep 2 Enrichment was -0.03 log2.

Substance “i53 + P69R two-hybrid fusion (designed binder)” registered an Experiment 1 Average Enrichment of -1.93 log2, an Experiment 1 Rep 1 Enrichment of -2.27 log2, an Experiment 1 Rep 2 Enrichment of -1.59 log2 and an Experiment 2 Average Enrichment of 0.75 log2. Besides, the Experiment 2 Rep 1 Enrichment was 0.2 log2 and the Experiment 2 Rep 2 Enrichment came to 1.29 log2.

For “i53 + Q31H two-hybrid fusion (designed binder)”, the Experiment 1 Average Enrichment came out at 0.19 log2, the Experiment 1 Rep 1 Enrichment stood at 0.66 log2, the Experiment 1 Rep 2 Enrichment was -0.29 log2 and the Experiment 2 Average Enrichment was 0.11 log2. The same substance came in with an Experiment 2 Rep 1 Enrichment of 0.13 log2 and an Experiment 2 Rep 2 Enrichment of 0.09 log2.

With “i53 + Q31L two-hybrid fusion (designed binder)”, the Experiment 1 Average Enrichment turned out to be 0.41 log2, the Experiment 1 Rep 1 Enrichment was 0.71 log2, the Experiment 1 Rep 2 Enrichment stood at 0.11 log2 and the Experiment 2 Average Enrichment is -0.15 log2. The Experiment 2 Rep 1 Enrichment is -0.23 log2 and the Experiment 2 Rep 2 Enrichment is -0.06 log2.

Regarding “i53 + Q31M two-hybrid fusion (designed binder)”, the Experiment 1 Average Enrichment was -1.74 log2, the Experiment 1 Rep 1 Enrichment was -0.84 log2, the Experiment 1 Rep 2 Enrichment is -2.63 log2 and the Experiment 2 Average Enrichment was found to be 0.07 log2. The Experiment 2 Rep 1 Enrichment is -0.05 log2 and the Experiment 2 Rep 2 Enrichment was 0.18 log2.

In the case of “i53 + Q31R two-hybrid fusion (designed binder)”, the Experiment 1 Average Enrichment is 0.15 log2, the Experiment 1 Rep 1 Enrichment is 0.66 log2, the Experiment 1 Rep 2 Enrichment was -0.37 log2 and the Experiment 2 Average Enrichment was -0.22 log2. Further, the Experiment 2 Rep 1 Enrichment amounted to 0.14 log2 and the Experiment 2 Rep 2 Enrichment was -0.58 log2.

Turning to “i53 + Q31Y two-hybrid fusion (designed binder)”, the Experiment 1 Average Enrichment turned out to be 0.32 log2, the Experiment 1 Rep 1 Enrichment turned out to be 0.31 log2, the Experiment 1 Rep 2 Enrichment is 0.34 log2 and the Experiment 2 Average Enrichment was -0.05 log2. The Experiment 2 Rep 1 Enrichment is -0.26 log2 and the Experiment 2 Rep 2 Enrichment worked out at 0.16 log2.

Substance “i53 + Q40D two-hybrid fusion (designed binder)” yielded an Experiment 1 Average Enrichment of -0.31 log2, an Experiment 1 Rep 1 Enrichment of 0.13 log2, an Experiment 1 Rep 2 Enrichment of -0.75 log2 and an Experiment 2 Average Enrichment of 0.8 log2. Also, the Experiment 2 Rep 1 Enrichment turned out to be 1.27 log2 and the Experiment 2 Rep 2 Enrichment turned out to be 0.33 log2.

The substance “i53 + Q40E two-hybrid fusion (designed binder)” yielded an Experiment 1 Average Enrichment of 1.37 log2, an Experiment 1 Rep 1 Enrichment of 1.67 log2, an Experiment 1 Rep 2 Enrichment of 1.08 log2 and an Experiment 2 Average Enrichment of 1.18 log2. Moreover, the Experiment 2 Rep 1 Enrichment was determined as 1.84 log2 and the Experiment 2 Rep 2 Enrichment turned out to be 0.52 log2.

In the case of “i53 + Q41C two-hybrid fusion (designed binder)”, the Experiment 1 Average Enrichment was found to be 0.18 log2, the Experiment 1 Rep 1 Enrichment is 0.22 log2, the Experiment 1 Rep 2 Enrichment turned out to be 0.13 log2 and the Experiment 2 Average Enrichment was -0.03 log2. The substance also yielded an Experiment 2 Rep 1 Enrichment of -0.05 log2 and an Experiment 2 Rep 2 Enrichment of 0 log2.

“i53 + Q41I two-hybrid fusion (designed binder)”: the Experiment 1 Average Enrichment is 0.3 log2, the Experiment 1 Rep 1 Enrichment worked out at 0.3 log2, the Experiment 1 Rep 2 Enrichment was 0.3 log2 and the Experiment 2 Average Enrichment is -0.08 log2. Moreover, the Experiment 2 Rep 1 Enrichment amounted to 0.08 log2 and the Experiment 2 Rep 2 Enrichment was -0.25 log2.

As to “i53 + Q41V two-hybrid fusion (designed binder)”, the Experiment 1 Average Enrichment was -0.14 log2, the Experiment 1 Rep 1 Enrichment was -0.37 log2, the Experiment 1 Rep 2 Enrichment was found to be 0.1 log2 and the Experiment 2 Average Enrichment stood at 0.05 log2. The same substance had an Experiment 2 Rep 1 Enrichment of 0.13 log2 and an Experiment 2 Rep 2 Enrichment of -0.03 log2.
